Measured values taken from the DeepSol protein solubility set.

Assay: soluble on expression in E. coli; label from the status in PepcDB or PDB records

| Sequence | soluble on expression in E. coli |
| --- | --- |
| MELQEVLRMNGGEGDTSYAKNSAYNQLVLAKVKPVLEQCVRELLRANLPNINKCIKVADLGCASGPNTLLTVRDIVQSIDKVGQEKKNELERPTIQIFLNDLFPNDFNSVFKLLPSFYRKLEKENGRKIGSCLIGAMPGSFYSRLFPEESMHFLHSCYCLQWLSQVPSGLVTELGIGTNKGSIYSSKASRLPVQKAYLDQFTKDFTTFLRIHSEELFSHGRMLLTCICKGVELDARNAIDLLEMAINDLVVEGHLEEEKLDSFNLPVYIPSAEEVKCIVEEEGSFEILYLETFKVLYDAGFSIDDEHIKAEYVASSVRAVYEPILASHFGEAIIPDIFHRFAKHAAKVLPLGKGFYNNLIISLAKKPEKSDM | soluble |
| SKRVNSCVKSDEHVLEELETEGERQLKSLLQHQLDTSVSIEECMSKKESFAPGTMYKPFGKEAAGTMTLSQFQTLHEKDQETASLRELGLNETEILIWKSHVSGEKKTKLRATPEAIQNRLQDIEERISERQRILCLPQRFAKSKQLTRREMEIEKSLFQGADRHSFLKALYYQDEPQKKNKGDPMNNLESFYQEMIMKKRLEEFQLMRGEPFASHSLVSATSVGDSGTAESPSLLQDKGKQAAQGKGPSLHVANVIDFSPEQCWTGPKKLTQPIEFVPEDEIQRNRLSEEEIRKIPMFSSYNPGEPNKVLYLKNLSPRVTERDLVSLFARFQEKKGPPIQFRMMTGRMRGQAFITFPNKEIAWQALHLVNGYKLYGKILVIEFGKNKKQRSNLQATSLISCATGSTTEISGS | not soluble |
| MGSDKIHHHHHHMVVNALAVGCGLNVAPAQAHKFASNYHCFMVRRFDRTNAGRRLHFASAMTLTRHQDGEDASTGVSYLELADVLIRHGAQTNTDLKELWSRIVFNILVSNTDDHLRNHGYILIPGKGWRLSEAYDLNPVARSDGLKLNITENDNALDLELAREVAEYFRLGLTEADDIIANFRGIVSQWRIIAERLRLPGREQELMAEAFRGAI | not soluble |
| MGSDKIHHHHHHMRKDEYRATLLEPNVWHIADYRGDSMYLVVGEEKALLVDTGMGEGDLKGFVRSITEKPVEVVLTHAHWDHIMQANQFEKVYLNHRDFQIIELFKINVNYENFLNVKEGDRFDLGGRTLEVIEVPGHTPGSIVLLDRENRLLFSGDSVGAGHTWMHLPGCLPLREYLKSLKKLKETDSFEKIYHGHLTGTQLKPFGPDYLDDLIKAVEGVIDGSLRGEP | not soluble |
| MNRIYLYLLIVLILAGCSSPGGRYDMSDDQAPDTPLSVEHIEDAHPQYEPYSFGGNKDYNLRGKSYRIIKNPKGFTESGKASWYGKKFHGHLTSNGEIYDMYSMTAAHKTLPIPSYVKVTNTDNGKSTVVRVNDRGPFHDGRIIDLSYAAAYKIGVVQAGTANVRIEVITVDKPTKPRPKSKNNALEYVIQVVSSQHIERVRTLAQNLGQNLSAPSFVESTNNTHRLFLGPFTDDDLTQTLLEQVKSAGYDSAFIKTINKRAK | not soluble |
| MKNKPLGLWLMSLLVLVGCKANQDDLTSYVAQVEREARKEVTKLKPILEFEATPYQQHKGREPFVLPKEALVQNQPLAKADCWQPVPRAKNGPLERYPLHQLRLKGVMSSGGSISALVQTPAGSVVKVKAGQYVGINNGKVTRVDDNYLLINETLPDGLGCWNQRNVKLALK | not soluble |
| MTDDVDTHIHEKFDLQKRLGKGAYGIVWKAYDKRSRETVALKKIFDAFRNPTDSQRTFREVMFLQEFGKHPNVIKLYNIFRADNDRDIYLAFEFMEADLHNVIKKGSILKDVHKQYIMCQLFRAIRFLHSGNVLHRDLKPSNVLLDADCRVKLADFGLARSLSSLEDYPEGQKMPDLTEYVATRWYRSPEILLAAKRYTKGVDMWSLGCILAEMLIGRALFPGSSTINQIERIMNTIAKPSRADIASIGSHYAASVLEKMPQRPRKPLDLIITQSQTAAIDMVQRLLIFAPQKRLTVEQCLVHPYVVQFHNPSEEPVLNYEVYPPLPDHIQLSIDDYRDRLYEMIDEKKASFKRIQHEKIRPYGEDKSRAPIAQAECSDTDYDTARSLQRTTSMDKNNSSSHDSSSGTLRERAASAESRTSKDSNGEMRNGNGNTPSSIKQRRRSVERARLFANIKPSKILHPHKLISNY | not soluble |
| MAANFWNSSHYKQLLDPEEVDVVHDLDKERGISIDDFKLIKFHMSNHIMKLAQHIKVRQRVVATAITYMRRVYIRKSMVEFEPRLVALTCLYLASKAEESIVQARNLVFYIKRLYPDEYNKYELKDILGMEMKVLEALDYYLVVFHPYRSLSEFLQDAALNDVNMNQITWGIVNDTYKMDLILVHPPYRIALACIYIASVHREKDITAWFEDLHEDMNLVKNIAMEILDFYENYRTITEEKVNSAFSKLALKL | soluble |
| MHHHHHHHHHHISSASGESQMSLDEIEDVYHTRPGYRPEEYRWGQGGAKIIDYHIQSAGVDFPPSLTGNQQTDFLMKVVFEYDFDCVVPGILIKTLDGLFLYGTNSFLASEGRENISVSRGDVRVFKFSLPVDLNSGDYLLSFGISAGNPQTDMTPLDRRYDSIILHVTKSMDFWGVIDLKSSFTSYQ | soluble |
| MGSDKIHHHHHHMEVFVLGCAGSGKSTFVRSFSEFLQERGYSVKCVNLDPASDPAYRADKNVREFVKTENVMVEYGLGVNGALIKSVEIASEHAEELKAEGDFVLYDTPGQLELFIYSEAGRKFVRELSGSFSCSLFLVDLTTVTDPESLLSAIMQDVIVSLRLSLPTLTAFTKSDVADVDVRSLLGEIKHREGVLAELMEKLVDFIELTTIPYRPIKISNIKKTGYEELFSALYELFCAAET | not soluble |
| MSLTKNKFDNRADKLGESWDLLNKEGRKIGLKHRGEPFKPGEWHSLVNASIFNYQHEILMQQRSFNKIGRPGEWDFETGGSVLASEDSLTAIKREVKEEVGLELNFSEENFVETFRNWPVFDNWYVIKADLSIKDIRIQKSELEQAKFMPFDQAIKYLSSNYLPYLLKAYKKLFGGENEGHHHHHH | not soluble |
| MGMLVEGVWKDVWYDTKETKGHFKRSASQFRNWVTVDGAVGPSGEGGFEAEKDRYHLYVSFACPWAHRTLIFRKLKKLEDLISVSVVDPLMLENGWEFKPEGERTPGATQDHLFGSSTLWQVYTKADPTYSGRVTVPVLWDKKRGTIVSNESAEIIRMFNVAFNDLTGSDADYYPKALRAEIDALNDVIYDTVNNGVYKAGFATTQDAYQQNAVKVFETLDMLEDRLKDRRFLFGSEQTEADWRLFTTLVRFDPVYVGHFKCNIRRIHDYPHLTGYLRDLYQTPGVPDTVDMRHIKEHYYRSHRTINPTGIVPIGPELDLTMAHGREALS | soluble |
| GAMGSGDTQLFNRAVSMVEKNKDIRSLLQCDDGITGKERLKAYGELITNDKWTRNRPIVSTKKLDKEGRTHHYMRFHVESKKKIALVHLEAKESKQNYQPDFINMYVDVPGEKRYYLIKPKLHPVSN | soluble |
| MNELINGNAIKMTSIEIAELVESRHSNVKVSIDRLVKRGVIKPPALQHTNIINDLGVITGKRDFYVFEGEKGKRDSIIVVAQLSPEFTARLVDRWRELEEAAVNIPKTLPEALRLAADLAEQKMQLENQLAIAAPKVEFADRVGEASGILIGNFAKVVGIGPNKLFAWMRDHKILIASGARRNVPMQEYMERGYFTVKETAVNTNHGIQISFTTKITGRGQQWLTRKLLDNGMLKVTGEAA | not soluble |
| MGHHHHHHSHMLFIDNQNINDPRINLAIEEYCVKHLDPEQQYLLFYVNQPSIIIGKNQNTIEEINTKYVEENGIIVVRRLSGGGAVYHDLGNLNFSFITKDDGDSFHNFKKFTEPVIQALHQLGVEAELSGRNDIVVDGRKISGNAQFATKGRIFSHGTLMFDSAIDHVVSALKVKKDKIESKGIKSIRSRVANISEFLDDKMTTEEFRSHLLRHIFNTNDVGNVPEYKLTEKDWETIHQISKERYQNWDWNYGRSPKFNLNHSKRYPVGSIDLHLEVKKGKIEDCKIFGDFFGVGDVSEIENLLVGKQYERSVIADVLEGVNLKHYFGNITKEDFLDLIY | not soluble |
| MTDVRHCPAVLIAAPASGQGKTTVTAALARLHRNRGRKVRVFKCGPDFLDPMILERASGAAVYQLDMWMVGEQESRRLLWEAAGEADLILIEGVMGLFDGTPSSADLARHFGVPVLGVIDGTAMAQTFGALALGLARYQPDLPFAGVLANRVGTLRHAQLLEGSLTEGLRWYGALSRETDIELPSRHLGLVQASELNDLDLRLDAAAEALASSCQVELPPAVSFAAPTPVACAPLLKGVRIAVARDEAFAFTYGASLDLLRAMGAQLSFFSPIHDTQLPDADSLYLPGGYPELHHQALARNSSMLQAIRAHHAAGKPLLAECGGMLYLLDSLTDVEGQRAELLGLLPGDAVMQKRLAALALQAVDLPEGSLRGHTYHHSLTSTELLPIARGLSPNGGRGAEAVYRQGRMTASYVHFYFPSNPAAVAALFAPGAPVEPVLAEGVAGELEHHHHHH | not soluble |
| MNIKYSGIENRFETAILKKNGVRSGFVSFAPNLAAVKLNDYAKVRKRITKTKQKADIVIVMFHGGAEGKQAEHLPFDTEIFYGENRGNVVEFARLAVDSGADVVFGQGPHVTRAVELYRDRFISYSGGNFATYGAINTSGISGIAPIFKIITDKQGRFVSGNIIPITQVGDKIPKIDPEKTVIGRIIYLNRSDFPKGNGLDVSPDGSITRR | not soluble |
| MNFSGKYQVQSQENFEPFMKAMGLPEDLIQKGKDIKGVSEIVHEGKKVKLTITYGSKVIHNEFTLGEECELETMTGEKVKAVVKMEGDNKMVTTFKGIKSVTEFNGDTITNTMTLGDIVYKRVSKRI | soluble |
| MGHHHHHHSHMTSYDQIWETFLNNCETSDFDVPQQEEDIYKSIRNAILHFNNRLRDNLKADNSTETVNRELSEDDLLILAHFLRYIFLLNKKTLFENTWQPFTNDVGIKNFGTQLNSLKQSVMDQKDEIERLILNAAVDYL | soluble |
| MTPLSSPLSQYWQTVVERLPEGFTETSLSAQAKSVLTFSDFALDSVIAHPEWLAELESASPQADEWRHYAGWLQEALAGVCDDASLMRELRLFRRRIMVRIAWAQTLSLVDDETILQQLSHLAETLIVGARDWLYAACCREWGTPCNPQGVPQPLLILGMGKLGGGELNFSSDIDLIFAWPEHGETRGGRRELDNAQFFTRLGQRLIKALDQPTMDGFVYRVDMRLRPFGDSGPLVLSFAALEDYYQEQGRDWERYAMVKARLMGDNDDAWSRELRAMLRPFVFRRYIDFSVIQSLRNMKGMIAREVRRRGLKDNIKLGAGGIREIEFIVQVFQLIRGGREPSLQSRSLLPTLDAIAALHLLPENDVAQLRVAYLFLRRLENLLQSINDEQTQTLPADDLNRARLAWGMKAENWPQLVGELTDHMANVRRVFNELIGDDEADTPQEEERSEPWREVWQDALQEDDSTPVLAHLADEDRRQVLTLIADFRKELDKRPIGPRGRQVLDQLMPHLLADVCSREDAAVTLSRITPLLAGIVTRTTYLELLSEFPGALKHLIMLCAASPMIASQLARYPLLLDELLDPGTLYQPTATDAYRDELRQYLLRVPEEDEEQQLEALRQFKQAQLLRIAAADIAGTLPVMKVSDHLTWLAEAMIDAVVQQAWTQMVARYGQPAHLDERQGRGFAVVGYGKLGGWELGYSSDLDLIFLHDCPMDVMTNGEREIDGRQFYLRLAQRIMHLFSTRTSSGILYEVDARLRPSGAAGMLVTSADAFADYQQHEAWTWEHQALVRARVVYGDPQLTSQFDAVRRTIMTTARDGKTLQTEVREMREKMRAHLGNKHRDRFDIKADEGGITDIEFIAQYLVLRYAHEKPKLTRWSDNVRILELLAQNGIMDEHEAQALTVAYTTLRDELHHLALQELPGHVAQTCFSKERALVQASWRKWLVAV | soluble |
| AHHHHHHGSKVVALLSSGIDSPVAIHLMASRGVEVYPLHFRQDEVKERKVRKVVKKLQEIHGEKVKDPHTVNAYEVQAPVFEKLKEIKKGKWTCVFCKYTMYIVAESYAKKVGASAIITGDSLGQVASQTLDNLLVISTATKLPVIRPLIGLDKEEIVKIAKEIGTFEISIEEEPPCPFVPKFPVVRAGLGEFQKILSQVKDKLPRGDL | soluble |
